Experimental data reported in patent US20100004432, “APTAMER AGAINST MIDKINE AND USE THEREOF” (RIBOMIC INC., published 2010).
Positions count from the first letter of the chain named.

Tests used:
Details in all cases: tags: expressed in yeast
[1] = biological target: T1, midkine (full-length) (Homo sapiens, UniProt P21741 P21741:23-143); test: cell_activity; 500 nM RNA
T1 sequence: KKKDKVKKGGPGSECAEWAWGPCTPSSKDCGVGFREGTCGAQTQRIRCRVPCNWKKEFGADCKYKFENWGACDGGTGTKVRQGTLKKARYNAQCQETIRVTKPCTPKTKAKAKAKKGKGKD
Method: (§1) Chem. 276 (19), 15868-15875, 2001). […] 30 μL of 1.5 μM midkine was applied to the outer surface of the membrane of Chemotaxicell (membrane pore diameter 8 μm, manufactured by Kurabo) to immobilize the midkine to the outer surface of the membrane. The midkine-immobilized Chemotaxicell was placed on a 24-well culture plate containing 500 μL of a medium (supplemented with 0.3% bovine serum albumin, Dulbecco's Modified Eagle's medium) supplemented with each RNA aptamer added thereto at 100 nM. 200 μL of UMR106 cells were placed in the inner layer of the Chemotaxicell chamber at a density of 1×10⁶ cells/mL, and cultured at 37° C. for 4 hours. The cells remaining in the inner layer of the Chemotaxicell chamber were removed, and the cells that had infiltrated and adhered to the midkine-applied surface were fixed with methanol. The Chemotaxicell chamber was immersed in a 1% aqueous solution of Crystal Violet for 30 minutes to stain the cells. After the Chemotaxicell chamber was washed with distilled water and dried, the pigment was extracted with a mixed solution of 200 μL of 1% SDS and 1% triton X100. 150 μL of the extract was transferred to a 96-well microplate, and its absorbance at 590 nm was determined.
(§2) The aptamer shown by SEQ ID NO:4 is 77 nucleotides long, having the 2′ position of the ribose of the pyrimidine nucleotide thereof fluoro-substituted. To enable the chemical synthesis, to reduce the toxicity, and to improve the stability in the blood, miniaturization and stabilization of this aptamer were performed. The operations of miniaturization and stabilization were performed on the basis of the secondary structure estimated by the MFOLD program, and the activity was evaluated by a cell migration inhibition experiment. In the cell migration inhibition experiment, the RNA concentration was 100 nM or 500 nM. Since some errors occur in experimental results depending on cell condition, a previously assayed sample was included as a positive control in each measurement.

[2] = biological target: T1, midkine (full-length); test: cell_activity; UMR106 migration inhibition, 500 nM RNA
Method: as §1, §2

[3] = biological target: T1, midkine (full-length); test: cell_activity; 100 nM RNA
Method: (§3) 30 μL of 1.5 μM midkine was applied to the outer surface of the membrane of Chemotaxicell (membrane pore diameter 8 μm, manufactured by Kurabo) to immobilize the midkine to the outer surface of the membrane. The midkine-immobilized Chemotaxicell was placed on a 24-well culture plate containing 500 μL of a medium (supplemented with 0.3% bovine serum albumin, Dulbecco's Modified Eagle's medium) supplemented with each RNA aptamer added thereto at 100 nM. 200 μL of UMR106 cells were placed in the inner layer of the Chemotaxicell chamber at a density of 1×10⁶ cells/mL, and cultured at 37° C. for 4 hours. The cells remaining in the inner layer of the Chemotaxicell chamber were removed, and the cells that had infiltrated and adhered to the midkine-applied surface were fixed with methanol. The Chemotaxicell chamber was immersed in a 1% aqueous solution of Crystal Violet for 30 minutes to stain the cells. After the Chemotaxicell chamber was washed with distilled water and dried, the pigment was extracted with a mixed solution of 200 μL of 1% SDS and 1% triton X100. 150 μL of the extract was transferred to a 96-well microplate, and its absorbance at 590 nm was determined.
as §2, with “NO:5” for “NO:4”, “2′-position” for “2′ position”, “nucleotide” for “nucleotide thereof”, “The RNA concentration in” for “In”, “experiment” for “experiment, the RNA concentration”

[4] = biological target: T1, midkine (full-length); test: cell_activity; UMR106 migration inhibition, 500 nM RNA; remark: listed apart in the source
Method: as §3
as §2, with “NO:5” for “NO:4”, “2′-position” for “2′ position”, “nucleotide” for “nucleotide thereof”, “The RNA concentration in” for “In”, “experiment” for “experiment, the RNA concentration”

GGGAGAGGAACGACGAGGAGUAGCCGGAAAGAAGGCGGCGUC (ssRNA, 2'-F pyrimidines) [SEQ ID NO:20]
activity [1]: 97 % of SEQ 4 inhibition

B1: SEQ ID NO:20-3 (ssRNA)
RNA: GGGAGAGGAACGACGAGGAGUAGCCGGAAAGAAGGCGGCGUC
modifications: 2'-F pyrimidines; 2'-OMe purines of second stem: gggagaggaac(F)gac(F)gaggagu(F)ag(M)c(F)c(F)ggaaagaag(M)g(M)c(F)ggc(F)gu(F)c(F)
activity [2]: 60 % of SEQ ID NO:4

GGGAGAGGAACGACGAGGAGUAGCCGGAAAGAAGGCGGCGUC (ssRNA, 2'-F pyrimidines; 20-1 pattern plus 2'-OMe A in loop: gga(M)aa(M)gaagg) [SEQ ID NO:20-7]
activity [2]: 88 % of SEQ ID NO:4

GGGAGAGGAACGACGAGGAGUAGCCGGAAAGAAGGCGGCGUC (ssRNA, 2'-F pyrimidines; 2'-OMe on all purines of the 5' single-stranded part g1-a10) [SEQ ID NO:20-1]
activity [2]: 109 % of SEQ ID NO:4

B2: SEQ ID NO:20-5 (ssRNA)
RNA: B1 RNA
modifications: 2'-F pyrimidines; 20-1 pattern (2'-OMe 5' single strand) plus 2'-OMe A in bulge: ga(M)gga(M)gu(F)a(M)g
activity [2]: 88 % of SEQ ID NO:4

GGGAGAGGAACGACGAGGAGUAGCCGGAAAGAAGGCGGCGUC (ssRNA, 2'-F pyrimidines; 20-1 pattern plus 2'-OMe G in bulge: gag(M)g(M)ag(M)u(F)ag) [SEQ ID NO:20-6]
activity [2]: 69 % of SEQ ID NO:4

B3: SEQ ID NO:20-2 (ssRNA)
RNA: B1 RNA
modifications: 2'-F pyrimidines; 2'-OMe purines of first stem: gggagaggaac(F)g(M)a(M)c(F)g(M)aggagu(F)agc(F)c(F)ggaaagaaggc(F)ggc(F)g(M)u(F)c(F)
activity [2]: 84 % of SEQ ID NO:4

GGGAGAGGAACGACGAGGAGUAGCCGGAAAGAAGGCGGCGUC (ssRNA, 2'-F pyrimidines; 20-5 pattern plus 2'-OMe A in loop: gga(M)aa(M)gaagg) [SEQ ID NO:20-8]
activity [2]: 99 % of SEQ ID NO:4

B4: SEQ ID NO:20-9 (ssRNA)
RNA: B1 RNA
modifications: 2'-F pyrimidines; 20-5 pattern plus 2'-OMe first stem: c(F)g(M)a(M)c(F)g and 3' g(M)u(F)c(F)
activity [2]: 130 % of SEQ ID NO:4

GGGAGAGGAACGACGAGGAGUAGCCGGAAAGAAGGCGGCGUC (ssRNA, 2'-F pyrimidines; 2'-OMe G in loop: c(F)c(F)g(M)g(M)aaag(M)aagg) [SEQ ID NO:20-4]
activity [2]: 60 % of SEQ ID NO:4

B5: SEQ ID NO:20-13 (ssRNA)
RNA: B1 RNA
modifications: 2'-F pyrimidines; 20-5 pattern plus 2'-OMe: c(F)g(M)a(M)c(F), gga(M)aa(M)gaag(M)g, 3' g(M)u(F)c(F)
activity [2]: 89 % of SEQ ID NO:4

B6: SEQ ID NO:20-10 (ssRNA)
RNA: B1 RNA
modifications: 2'-F pyrimidines; 20-5 pattern plus 2'-OMe near 3' end: ggc(F)g(M)g(M)c(F)gu(F)c(F)
activity [2]: 86 % of SEQ ID NO:4

B7: SEQ ID NO:20-12 (ssRNA)
RNA: B1 RNA
modifications: 2'-F pyrimidines; 20-5 pattern plus 2'-OMe: c(F)g(M)a(M)c(F), gga(M)aa(M)g(M)aagg, 3' g(M)u(F)c(F)
activity [2]: 53 % of SEQ ID NO:4

B8: SEQ ID NO:20-11 (ssRNA)
RNA: B1 RNA
modifications: 2'-F pyrimidines; 20-5 pattern plus 2'-OMe: c(F)g(M)a(M)c(F), gga(M)aa(M)gaagg, c(F)g(M)g(M)c(F)g(M)u(F)c(F)
activity [2]: 76 % of SEQ ID NO:4

B9: SEQ ID NO:32 (ssRNA)
RNA: GGGAGAGGAGAAGAGGAAGUGUGCACAGGGGUUGGUGUCGGGUGCAUACAGUAUAAG
modifications: 2'-F pyrimidines
activity [3]: 100 % of SEQ 5 inhibition

GGGAGAGGAACGUACGAGGAGUAGCCGGAAAGAAGGCGGCGUAC (ssRNA, 2'-F pyrimidines) [SEQ ID NO:19]
activity [1]: 94 % of SEQ 4 inhibition

B10: SEQ ID NO:36 (ssRNA)
RNA: GGGAGAGGAGAAGAGGAAGUGCACAGGGGUUGGUGUCGGGUGCACAGUAUAAG
modifications: 2'-F pyrimidines
activity [3]: 91 % of SEQ 5 inhibition

B11: SEQ ID NO:36-1 (ssRNA)
RNA: B10 RNA
modifications: 2'-F pyrimidines; 2'-OMe on all of 5' single strand (nt 1-18)
activity [3]: 60 % of SEQ 5 inhibition

GGGAGAGGAACGACGAGGAGUAGCCGAAAGGCGGCGUC (ssRNA, 2'-F pyrimidines) [SEQ ID NO:23]
activity [1]: 66 % of SEQ 4 inhibition

GGGAGAGGAACGACGAGGAGUAGCCUUCGGGCGGCGUC (ssRNA, 2'-F pyrimidines) [SEQ ID NO:24]
activity [1]: 65 % of SEQ 4 inhibition

B12: SEQ ID NO:35 (ssRNA)
RNA: GGGAGAGGAGAAGAGGAAGUGUGCACAGGGGUUGGUGUCGGGUGCAUACAG
modifications: 2'-F pyrimidines
activity [3]: 90 % of SEQ 5 inhibition

B13: SEQ ID NO:61-3 (ssRNA)
RNA: GGGAAGGAGGAAGUGCACAGGGGUUGGUGUCGGGUGCAC
modifications: g(F)g(F)g(F)a(M)a(M)g(F)g(F)a(M)g(F)g(F)a(M)a(M)g(M)u(F)g(M)c(F)a(M)c(F)a(M)g(F)g(M)g(M)g(M)u(F)u(F)g(M)g(M)u(F)g(M)u(F)c(F)g(F)g(F)g(M)u(F)g(M)c(F)a(M)c(F); M 2'-OMe, F 2'-F
activity [4]: 80 % of SEQ ID NO:40

GGGAAGGAGGAAGUGCACAGGGGUUGGUGUCGGGUGCAC (ssRNA, as 61-4 plus 5' branched PEG40k and 3' idT) [SEQ ID NO:61-5]
activity [4]: 40 % of SEQ ID NO:40

B14: SEQ ID NO:61-4 (ssRNA)
RNA: B13 RNA
modifications: ggga(M)a(M)gga(M)gga(M)a(M)g(M)u(F)g(M)c(F)a(M)c(F)aggg(M)g(M)u(F)u(F)g(M)g(M)u(F)g(M)u(F)c(F)gggu(F)g(M)c(F)a(M)c(F); M 2'-OMe, F 2'-F
activity [4]: 86 % of SEQ ID NO:40

GGGAAGGAGGAAGUGCACAGGGGUUGGUGUCGGGUGCAC (ssRNA, as 61-4 plus PEG30k at both ends) [SEQ ID NO:61-6]
activity [4]: 57 % of SEQ ID NO:40

B15: SEQ ID NO:33 (ssRNA)
RNA: GGAGAAGAGGAAGUGUGCACAGGGGUUGGUGUCGGGUGCAUACAGUAUAAGAUAGAGGACA
modifications: 2'-F pyrimidines
activity [3]: 40 % of SEQ 5 inhibition

GGGAGAGGAACGACGAGAACAGCCGGAAAGAAGGCGGCGUC (ssRNA, 2'-F pyrimidines) [SEQ ID NO:25]
activity [1]: 81 % of SEQ 4 inhibition

GGGAGAGGAACGACGAGAGUAGCCGGAAAGAAGGCGGCGUC (ssRNA, 2'-F pyrimidines) [SEQ ID NO:26]
activity [1]: 18 % of SEQ 4 inhibition

GGGAGAGGAACGACGAGGGUAGCCGGAAAGAAGGCGGCGUC (ssRNA, 2'-F pyrimidines) [SEQ ID NO:27]
activity [1]: 78 % of SEQ 4 inhibition

B16: SEQ ID NO:41 (ssRNA)
RNA: GGGAAGGAGAAGAGGAAGUGCACAGGGGUUGGUGUCGGGUGCACAGUAUAAG
modifications: 2'-F pyrimidines
activity [3]: 97 % of SEQ 5 inhibition

B17: SEQ ID NO:42 (ssRNA)
RNA: B16 RNA with A5G, G6A, A8G, G9A, A10G
modifications: 2'-F pyrimidines
activity [3]: 110 % of SEQ 5 inhibition

B18: SEQ ID NO:30 (ssRNA)
RNA: GGAGAAGAGGAAGUGUGCACAGGGGUUGGUGUCGGGUGCAUACAGUAUAAGAUAGAGGACAGGAAUGAGGA
modifications: 2'-F pyrimidines
activity [3]: 44 % of SEQ 5 inhibition

B19: SEQ ID NO:31 (ssRNA)
RNA: GGGAGAGGAGAAGAGGAAGUGUGCACAGGGGUUGGUGUCGGGUGCAUACAGUAUAAGAUAGAGGACA
modifications: 2'-F pyrimidines
activity [3]: 94 % of SEQ 5 inhibition

GGGCUACGAGGAGUAGCCGGAAAGAAGGCGGCGUAGC (ssRNA, 2'-F pyrimidines) [SEQ ID NO:18]
activity [1]: 88 % of SEQ 4 inhibition

B20: SEQ ID NO:43 (ssRNA)
RNA: GGGAGAGGAGAAGAGGAGUGCACAGGGGUUGGUGUCGGGUGCACAGUAUAAG
modifications: 2'-F pyrimidines
activity [3]: 42 % of SEQ 5 inhibition

GGGAGAGGAGAAGAGGAAGGCACAGGGGUUGGUGUCGGGUGCCAG (ssRNA, 2'-F pyrimidines) [SEQ ID NO:39]
activity [3]: 52 % of SEQ 5 inhibition

GGCGAGGAGUAGCCGGAAAGAAGGCGGCGCC (ssRNA, 2'-F pyrimidines) [SEQ ID NO:28]
activity [1]: 71 % of SEQ 4 inhibition

GACGAGGAGUAGCCGGAAAGAAGGCGGCGUC (ssRNA, 2'-F pyrimidines) [SEQ ID NO:29]
activity [1]: 74 % of SEQ 4 inhibition

GGGACGAGGAGUAGCCGGAAAGAAGGCGGCGUC (ssRNA, 2'-F pyrimidines) [SEQ ID NO:22]
activity [1]: 70 % of SEQ 4 inhibition
